From patent publication US20200109398

Tested on: R4Al (R4_AL) retrotransposase (Ascaris lumbricoides)
Test: cell_activity
Conditions: ddPCR 3' junction, HEK293T, plasmid cis

With human rDNA R4 target site the activity (copies/genome) was 0.085.
